Measurements: article PMC3305660, “Regulatory interactions for iron homeostasis in Aspergillus fumigatus inferred by a Systems Biology approach”

B1: hapXpmm11 (hapX -774 to -783) (dsDNA)
DNA 1: GCCTTTGAATGGGAGGATTCTTTATT
DNA 2: AATAAAGAATCCTCCCATTCAAAGGC
B2: hemApmm12 (hemA -338 to -347) (dsDNA)
DNA 1: CTGAGGCAATGAGGCGATGAGGCAAC
DNA 2: GTTGCCTCATCGCCTCATTGCCTCAG
B3: hemApmm11 (hemA -527 to -518) (dsDNA)
DNA 1: TCCCCAGTATCGGATCATACGGCTAC
DNA 2: GTAGCCGTATGATCCGATACTGGGGA
B4: srbApmm0mut (srbA* mutated site) (dsDNA)
DNA 1: TTCCCGCGATATAACATAGTGCTCCG
DNA 2: CGGAGCACTATGTTATATCGCGGGAA
B5: hapXpmm12 (hapX -1340 to -1331) (dsDNA)
DNA 1: CAGATAAGATCAGATGATGAAGGGAT
DNA 2: ATCCCTTCATCATCTGATCTTATCTG
B6: srbApmm0 (srbA -735 to -726) (dsDNA)
DNA 1: TTCCCGCGATCATACGATGTGCTCCG
DNA 2: CGGAGCACATCGTATGATCGCGGGAA

Molecular target: T1, SrbA161-267 (bHLHZ DNA-binding domain) (Aspergillus fumigatus, UniProt Q4WIN1 161-267)
T1 sequence: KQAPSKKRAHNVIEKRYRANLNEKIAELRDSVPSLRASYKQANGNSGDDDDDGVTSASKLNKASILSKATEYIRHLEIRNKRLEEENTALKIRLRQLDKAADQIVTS
Test: SPR; SPR kinetics on immobilized biotinylated DNA duplexes; buffer, salt, pH and temperature not given in the material (details in Additional file 2)
Conditions: protein: recombinant; chain copies: 2; label: 5' biotin on strand 1; blunt

Binder | Kd [nM]
B1 | 282 ± 5.1
B2 | 35.7 ± 0.52
B3 | 4.18 ± 0.41
B4 | 386 ± 7.3
B5 | 4.64 ± 0.03
B6 | 0.63 ± 0.04
